Measured values taken from doi:10.1101/625327.

Tests used:
Assay in all cases: SPR
M/N120 = M/N120 (UniProt Q9UBB5)
M/N20 = M/N20 (UniProt Q9UBB5)
M/N60 = M/N60 (UniProt Q9UBB5)

Measured: Kd

P15 (from UniProt Q86YP4 137-178) (domain or fragment)
3 nM: all assays above
